Earlier results in article PMC3472557.
pKd: −log10 of the molar value.

Legend:
ASPP2 (Homo sapiens) [1] = target: ASPP2 (Homo sapiens) (UniProt Q13625); assay: BIAcore SPR
ASPP2 (Homo sapiens) [2] = target: ASPP2 (Homo sapiens) (UniProt Q13625); assay: solid-phase ELISA

Chain of ASPP2 (Homo sapiens) (Q13625 whole entry): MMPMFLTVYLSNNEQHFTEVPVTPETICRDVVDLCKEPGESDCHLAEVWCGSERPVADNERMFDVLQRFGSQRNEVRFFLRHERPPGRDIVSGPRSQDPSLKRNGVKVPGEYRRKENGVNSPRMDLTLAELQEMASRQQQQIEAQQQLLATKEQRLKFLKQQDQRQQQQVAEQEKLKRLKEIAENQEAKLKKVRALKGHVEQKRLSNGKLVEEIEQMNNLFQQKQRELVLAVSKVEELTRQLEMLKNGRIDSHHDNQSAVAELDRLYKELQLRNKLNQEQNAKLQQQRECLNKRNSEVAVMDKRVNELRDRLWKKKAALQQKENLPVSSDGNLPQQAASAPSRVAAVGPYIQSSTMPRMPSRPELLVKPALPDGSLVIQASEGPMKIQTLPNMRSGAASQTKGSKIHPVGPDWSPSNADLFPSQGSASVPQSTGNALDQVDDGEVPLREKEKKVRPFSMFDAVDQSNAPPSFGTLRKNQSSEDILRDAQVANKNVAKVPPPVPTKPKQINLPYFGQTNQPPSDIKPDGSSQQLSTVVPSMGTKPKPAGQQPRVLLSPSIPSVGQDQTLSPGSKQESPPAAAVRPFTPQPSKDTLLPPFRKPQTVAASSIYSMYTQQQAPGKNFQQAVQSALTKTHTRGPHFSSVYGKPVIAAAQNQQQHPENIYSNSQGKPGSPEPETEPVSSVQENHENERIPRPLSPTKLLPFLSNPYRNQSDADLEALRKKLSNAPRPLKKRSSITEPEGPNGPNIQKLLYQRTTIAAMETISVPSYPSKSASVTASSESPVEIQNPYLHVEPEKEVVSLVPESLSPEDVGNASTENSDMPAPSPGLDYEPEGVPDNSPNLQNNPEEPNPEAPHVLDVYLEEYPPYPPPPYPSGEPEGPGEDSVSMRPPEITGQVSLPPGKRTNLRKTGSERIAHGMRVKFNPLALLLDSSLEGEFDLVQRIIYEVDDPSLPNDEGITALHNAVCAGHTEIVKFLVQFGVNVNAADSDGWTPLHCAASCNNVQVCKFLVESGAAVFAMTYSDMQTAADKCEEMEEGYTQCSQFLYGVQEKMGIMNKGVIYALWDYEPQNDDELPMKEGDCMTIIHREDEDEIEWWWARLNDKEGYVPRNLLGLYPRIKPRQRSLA

p53 (from UniProt P04637)
pKd (ASPP2 (Homo sapiens) [1]): 7.52
pKd (ASPP2 (Homo sapiens) [2]): 7.64
